Results taken from patent publication US20200095340A1.

target: biotinylated human DLL3 protein expressed as a human IgG1 fusion protein (human) (UniProt Q9NYJ7); assay: Octet BLI; biotinylated huDLL3-IgG1 fusion on streptavidin tips; single 50 nM; conditioned medium
Sequence (Q9NYJ7 other isoform, or with tags, fused parts or gaps): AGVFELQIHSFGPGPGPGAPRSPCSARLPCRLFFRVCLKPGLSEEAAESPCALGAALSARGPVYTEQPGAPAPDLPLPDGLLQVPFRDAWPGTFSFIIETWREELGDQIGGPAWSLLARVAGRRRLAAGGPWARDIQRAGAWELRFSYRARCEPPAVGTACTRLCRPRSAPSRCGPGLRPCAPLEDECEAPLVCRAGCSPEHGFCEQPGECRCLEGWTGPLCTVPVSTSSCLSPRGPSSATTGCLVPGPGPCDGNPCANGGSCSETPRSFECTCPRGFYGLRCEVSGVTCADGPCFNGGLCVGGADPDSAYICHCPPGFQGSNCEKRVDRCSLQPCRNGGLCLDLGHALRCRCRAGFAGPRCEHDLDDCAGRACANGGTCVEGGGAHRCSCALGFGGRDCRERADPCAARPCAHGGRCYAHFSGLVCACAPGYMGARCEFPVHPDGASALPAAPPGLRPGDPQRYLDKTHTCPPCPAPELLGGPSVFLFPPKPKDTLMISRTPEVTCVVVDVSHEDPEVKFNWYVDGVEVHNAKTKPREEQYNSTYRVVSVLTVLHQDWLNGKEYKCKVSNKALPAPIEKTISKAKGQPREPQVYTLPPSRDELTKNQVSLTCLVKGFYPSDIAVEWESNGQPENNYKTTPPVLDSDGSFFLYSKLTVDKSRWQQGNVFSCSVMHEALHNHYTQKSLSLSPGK

Row | Binder | Kd [nM]
1 | anti-DLL3 trispecific protein 1B010 (protein, part only; not given: CD3 fragment and albumin sdAb, part only) chain, part: EVQLVESGGGLVQPGGSLTLSCVASGSTSRINAMGWYRRAPGKQRELVAGISSDGSKVYADSVKGRFTISRDNAKNSVYLQMNSLRAEDTAVYYCYYFRTKSGSSMRYWGQGTLVTVSSGGGGSGGGSGGGGSGGGSHHHHHH | 6.8
2 | anti-DLL3 trispecific protein 1G011 (protein, part only; not given: CD3 binder and albumin binder, part only) chain, part: EVQLVESGGGLVQPGGSLTLSCVASGSTSSINAMAWYRRAPGKQRELVAGISSDGSKVYADSVKGRFTISRDNAKNSVYLQMNSLRAEDTAVYYCYYFKTVSGSSMRYWGQGTLVTVSSGGGGSGGGSGGGGSGGGSHHHHHH | 6.8
3 | anti-DLL3 trispecific protein 2C04 (protein, part only; not given: anti-CD3 fragment and anti-albumin sdAb, part only) chain, part: EVQLVESGGGLVQPGGSLTLSCVASGSTSSRNAMGWYRRAPGKQRELVAGISSDGSKLYADSVKGRFTISRDNAKNSVYLQMNSLRAEDTAVYYCYYFRTVLGSSMRYWGQGTLVTVSSGGGGSGGGSGGGGSGGGSHHHHHH | 6.8
4 | anti-DLL3 trispecific protein 3A011 (protein, part only; not given: CD3 binder and albumin binder, part only) chain, part: EVQLVESGGGLVQPGGSLTLSCAASGSSVSFLSLAWYRQAPGKKRELVAGISTDGSTDYIDSVKGRFTISRDNAKNSVYLQMNSLRAEDTAVYYCYAYRWRTRYTYWGQGTLVTVSSGGGGSGGGSGGGGSGGGSHHHHHH | 6.8
5 | anti-DLL3 trispecific protein 4C02 (protein, part only; not given: CD3 fragment and albumin sdAb, part only) chain, part: EVQLVESGGGLVQPGGSLTLSCAASGSKVSFLSMAWYRQAPGKKRELVAGISADGSTTYIDSVKGRFTISRDNAKNSVYLQMNSLRAEDTAVYYCYAYRWTTRFTYWGQGTLVTVSSGGGGSGGGSGGGGSGGGSHHHHHH | 6.8
6 | anti-DLL3 trispecific protein 4C06 (protein, part only; not given: CD3 fragment and albumin sdAb, part only) chain, part: EVQLVESGGGLVQPGGSLTLSCAASNSSVSKLSMAWYRQAPGKKRELVAGISADGSTAYIDSVKGRFTISRDNAKNSVYLQMNSLRAEDTAVYYCYAYRWSTRYTYWGQGTLVTVSSGGGGSGGGSGGGGSGGGSHHHHHH | 6.8

The remaining binders from weak to strong by Kd, led by results:

Row | Kd [nM] | Binder
7 | 6.8 | anti-DLL3 trispecific protein 2D03 (protein, part only; not given: anti-CD3 and anti-albumin domains, part only) chain, part: EVQLVESGGGLVQPGGSLTLSCVASGKTSSINAMGWYRRAPGKQRELVAGISSDGSKVYADSVKGRFTISRDNAKNSVYLQMNSLRAEDTAVYYCYYFRTVSGVSMRYWGQGTLVTVSSGGGGSGGGSGGGGSGGGSHHHHHH
8 | 6.7 | anti-DLL3 trispecific protein 2C06 (protein, part only; not given: CD3 binder and albumin binder, part only) chain, part: EVQLVESGGGLVQPGGSLTLSCVASGSTNSINAMGWYRRAPGKQRELVAGISSDGSKVYKDSVKGRFTISRDNAKNSVYLQMNSLRAEDTAVYYCYYYRTVSGSSMRYWGQGTLVTVSSGGGGSGGGSGGGGSGGGSHHHHHH
9 | 6.6 | anti-DLL3 trispecific protein 2B02 (protein, part only; not given: CD3 binder and albumin binder, part only) chain, part: EVQLVESGGGLVQPGGSLTLSCVASGSTSSINAMAWYRRAPGKQRELVAGISSDGSKVYADSVKGRFTISRDNAKNSVYLQMNSLRAEDTAVYYCYYFRTKSGSSMRYWGQGTLVTVSSGGGGSGGGSGGGGSGGGSHHHHHH
10 | 6.6 | anti-DLL3 trispecific protein 1G01 (protein, part only; not given: CD3 binder and albumin binder, part only) chain, part: EVQLVESGGGLVQPGGSLTLSCVASGSTSSINAMAWYRRAPGKQRELVAGISSDGSKVYAESVKGRFTISRDNAKNSVYLQMNSLRAEDTAVYYCYYFRTVSGASMRYWGQGTLVTVSSGGGGSGGGSGGGGSGGGSHHHHHH
11 | 6.6 | anti-DLL3 trispecific protein 2D06 (protein, part only; not given: anti-CD3 and anti-albumin domains, part only) chain, part: EVQLVESGGGLVQPGGSLTLSCVASGSTSSINAMGWYRRAPGKQRELVAGISSDGSKVYSDSVKGRFTISRDNAKNSVYLQMNSLRAEDTAVYYCYYFRTVSGSSSRYWGQGTLVTVSSGGGGSGGGSGGGGSGGGSHHHHHH
12 | 6.6 | anti-DLL3 trispecific protein 4C03 (protein, part only; not given: CD3 fragment and albumin sdAb, part only) chain, part: EVQLVESGGGLVQPGGSLTLSCAASGSKVSFMSMAWYRQAPGKKRELVAGISVDGSTDYIDSVKGRFTISRDNAKNSVYLQMNSLRAEDTAVYYCYAYRWRTRYTYWGQGTLVTVSSGGGGSGGGSGGGGSGGGSHHHHHH
